Biological target: T1, His-ARS2^147-871 (human, UniProt Q9BXP5-4 147-871)
T1 sequence (looked up): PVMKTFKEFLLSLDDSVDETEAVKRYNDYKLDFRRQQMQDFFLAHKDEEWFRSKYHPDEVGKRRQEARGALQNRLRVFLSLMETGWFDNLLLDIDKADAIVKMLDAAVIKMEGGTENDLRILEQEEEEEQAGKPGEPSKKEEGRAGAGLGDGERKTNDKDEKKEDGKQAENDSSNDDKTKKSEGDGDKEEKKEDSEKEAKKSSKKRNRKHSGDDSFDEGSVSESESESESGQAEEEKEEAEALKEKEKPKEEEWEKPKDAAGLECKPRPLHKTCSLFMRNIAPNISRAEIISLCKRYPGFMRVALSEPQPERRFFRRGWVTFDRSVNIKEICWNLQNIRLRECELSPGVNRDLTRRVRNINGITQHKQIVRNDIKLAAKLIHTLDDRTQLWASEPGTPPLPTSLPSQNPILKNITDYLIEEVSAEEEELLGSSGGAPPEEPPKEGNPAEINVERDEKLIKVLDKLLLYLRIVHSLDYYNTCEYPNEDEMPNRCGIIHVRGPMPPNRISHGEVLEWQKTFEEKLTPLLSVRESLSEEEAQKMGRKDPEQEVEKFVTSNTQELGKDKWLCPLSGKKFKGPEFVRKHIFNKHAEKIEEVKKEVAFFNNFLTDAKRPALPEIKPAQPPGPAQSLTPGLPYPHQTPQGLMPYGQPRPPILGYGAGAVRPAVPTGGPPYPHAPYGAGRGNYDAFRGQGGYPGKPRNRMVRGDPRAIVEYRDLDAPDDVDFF
Test: pull-down

B1: His-MBP-Z1^11-35(WT) (domain or fragment, human, UniProt O60293 11-35, looked up)
chain: SSGLSPKEEGELEDGEISDDDNNSQ
binding result: binds
